From article PMC3064491 (Nature, 2011)

Target: T1, human OGT construct (hOGT4.5) containing 4.5 TPR units and the catalytic domain (human, UniProt O15294-3 313-1031)
T1 sequence (looked up): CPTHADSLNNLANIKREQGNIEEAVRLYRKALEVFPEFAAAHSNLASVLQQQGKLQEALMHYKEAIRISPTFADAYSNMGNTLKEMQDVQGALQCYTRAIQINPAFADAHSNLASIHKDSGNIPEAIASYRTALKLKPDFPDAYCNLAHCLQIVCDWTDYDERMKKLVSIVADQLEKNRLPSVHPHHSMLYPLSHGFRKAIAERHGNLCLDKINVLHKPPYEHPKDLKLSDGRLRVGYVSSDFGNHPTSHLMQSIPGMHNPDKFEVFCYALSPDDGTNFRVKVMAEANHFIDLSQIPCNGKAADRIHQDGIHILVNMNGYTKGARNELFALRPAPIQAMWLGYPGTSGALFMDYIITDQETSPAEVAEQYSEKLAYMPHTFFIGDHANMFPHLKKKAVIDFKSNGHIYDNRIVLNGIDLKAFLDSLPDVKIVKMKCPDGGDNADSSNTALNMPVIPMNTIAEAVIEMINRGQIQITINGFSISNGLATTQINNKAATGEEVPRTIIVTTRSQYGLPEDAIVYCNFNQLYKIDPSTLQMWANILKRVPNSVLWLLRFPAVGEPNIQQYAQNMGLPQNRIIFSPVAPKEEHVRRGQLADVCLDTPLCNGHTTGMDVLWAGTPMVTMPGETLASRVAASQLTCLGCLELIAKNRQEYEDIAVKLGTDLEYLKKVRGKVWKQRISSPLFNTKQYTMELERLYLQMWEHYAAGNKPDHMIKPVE
Assay: crystal structure

B1: 14 residue-CKII peptide substrate (peptide)
peptide: YPGGSTPVSSANMM
B1: binds.
